This note sets out measurements from patent US20150098947A1 (RESEARCH DEVELOPMENT FOUNDATION, published 2015).

In one assay the target is T1, human Olfml3-FLAG (human, UniProt Q9NRN5 22-406, limits assumed).
T1 construct: Screening antigen of the hybridoma ELISA; the tag is written last only by convention; not shown: FLAG tag
T1 sequence (looked up): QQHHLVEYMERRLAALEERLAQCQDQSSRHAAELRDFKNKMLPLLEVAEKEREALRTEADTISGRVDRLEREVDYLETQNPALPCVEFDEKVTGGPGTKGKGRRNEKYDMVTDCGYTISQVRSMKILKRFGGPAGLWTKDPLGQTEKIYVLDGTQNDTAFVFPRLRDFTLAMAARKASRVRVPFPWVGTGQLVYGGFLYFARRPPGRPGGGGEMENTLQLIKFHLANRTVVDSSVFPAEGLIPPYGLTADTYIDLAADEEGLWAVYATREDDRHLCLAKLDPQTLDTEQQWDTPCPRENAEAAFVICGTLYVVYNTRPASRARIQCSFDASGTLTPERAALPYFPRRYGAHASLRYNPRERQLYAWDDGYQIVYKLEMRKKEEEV
As to the kind of experiment: hybridoma screening ELISA. How it is done: The inventors produced a panel of monoclonal antibodies against a recombinant Olfml-3 protein. Three antibodies against human Olfml3 were generated using standard techniques by injecting simultaneously two 14-aa long peptides comprising epitopes in the coiled-coil (peptide A, 86-99 aa: […]; SEQ ID NO: 5) and the olfactomedin-like domains (peptide B, 390-403 aa: […]; SEQ ID NO: 6) as immunogens in rats (Aurrand-Lions et al., 1996). Briefly, human Olfml3 peptides A and B coupled to 100 μg KLH carrier protein (keyhole limpet hemocyanin, Pierce) and mixed with adjuvant 56322 (Sigma), were used to immunize female Wister rats. In total, three injections were performed every 9 days. Two days after a final s.c. injection of human Olfml3 peptides, blasts from draining lymph nodes were fused to Sp2/0 cells, and hybridomas were selected in HAT-containing medium (Life Technologies). Growing clones were screened by ELISA for the production of monoclonal antibodies recognizing specifically human Olfml3-FLAG. Positive clones were subcloned, rescreened, and further tested. Antibodies were purified on protein G-Sepharose columns (GE HealthCare) according to the manufacturer instructions. Two Olfml3-binding antibodies, 46A9BO and 9F8BO, are of IgG2b isotype subclass and one, Z14A7, is of IgG2c isotype subclass. The 46A9BO and 9F8BO monoclonal antibodies were used for in vivo tumor graft models.
A general note: An ELISA detects its analyte on a solid surface through an enzyme-linked reagent.

In assay [1] the target is T2, Olfml-3 peptide A (human Olfml3 86-99 aa, coiled-coil domain) (human).
T2 peptide: RVDRLEREVDYLET
As to the kind of experiment: peptide binding test (ELISA).

The target of assay [2] is T3, Olfml-3 peptide B (human Olfml3 390-403 aa, olfactomedin-like domain) (human).
T3 peptide: GYQIVYKLEMRKKE
In words: peptide binding test (ELISA).

B1: Z14A7 monoclonal antibody (antibody, IgG2c, V domains shown)
VH: EVQLVETGGSLVQPGKSLKLTCATSGFTFSNAWMHWVRQSPEKQLEWVAQIKAKSNNYATYYAESVKGRFTISRDDSKSSIYLQMNSLKEEDTAIYYCLYGYYFDYWGQGVMVTVSS
VL: DVVMTQTPVSLPVSLGGQASISCRSSQSLIHSNGNTYLHWFLQKPGQSPQLLIYRISNRFSGVPDRFSGSGSGTDFTLKISRVESEDLGLYYCLQGTHLPFTFGSGTKLEIKR
notes: Rat hybridoma antibody, IgG2c
For B1, the binding result with human Olfml3-FLAG is “binds”.

B2: 46A9BO monoclonal antibody (glycosylated) (antibody, IgG2b, V domains shown)
VH: AVHLVESGGGLVQPKESLKISCAASGFTFSNAAMYWVRQAPGKGLEWVARIRTKPNDYATYYVDSVKGRFTISRDDSQSMVYLQMDNLKTEDTAMYYCTAFTEPDYWGQGVMVTVSS
VL: LIQPPSASVTLGSTVSLTCVGDELSKTYAHWYQQKPDKTIVSVIYKDSERPSGISDRFSGSSSGTTATLTIHGTLAEDEADYYCLSTYSDDNLPVFGGGTKLTVL
notes: also called mAb 2; anti-Olfml-3B
Turning to B2, the binding result is “binds” with human Olfml3-FLAG, “no binding” in assay [1] and “binds” in assay [2].

B3: deglycosylated 46A9BO antibody (antibody, V domains shown)
VH: B2 VH
VL: B2 VL
notes: Same rat IgG2b antibody as 46A9BO after deglycosylation; also called 46A9BO (deglycosylated)
B3: the binding result is recorded as “no binding” in assay [1] and “binds” in assay [2].
